What all share (assay type): cell-based
The test system of test [1] is human embryonic stem cell line H1. As to the kind of experiment: Real-time PCR of markers, Noggin at stages 3-4, Netrin-4 and ALK5 inhibitor II at stage 4 (Example 8). (Quantitative PCR measures a nucleic acid by following its amplification.)
Test [2] shares this test system. Nature of the test: Real-time PCR of markers, Noggin at stage 3 with ALK5 inhibitor II at stages 4 and 5 (Example 6).
Protocol: Cells of the human embryonic stem cell line H1, at passage 41 were cultured on […] ™ coated dishes (1:30 dilution) and exposed to DMEM/F12 medium supplemented with 0.5% FBS, and 100 ng/ml Activin-A (R&D Systems, MN) plus 20 ng/ml WNT-3a (Catalog #1324-WN-002, R&D Systems, MN), for two days followed by treatment with DMEM/F12 media supplemented with 2% FBS and 100 ng/ml Activin-A (AA) for an additional two days. Next the cultures were treated with DMEM/F12+2% FBS+20 ng/ml FGF7+0.25 μm Cyclopamine-KAAD (#239804, Calbiochem, CA) for three days followed by four day incubation in DMEM/F12+1% B27 (Invitrogen, CA)+20 ng/ml FGF7+0.25 μm Cyclopamine-KAAD+2 μm Retinoic acid (RA) (Sigma, MO)+0-500 ng/ml of Noggin (R & D Systems, MN).
Test [3] shares this test system. Nature of the test: Real-time PCR of markers, Noggin at stages 3 and/or 4 with ALK5 inhibitor II at stages 4 and 5 (Example 7). The text has this:
FIGS. 8A-8D depict a phase contrast image of the cultures according to the above protocol. In some of the cultures, stage 5 was extended from 3 days to 21 days. By day 10-12 of culture in stage 5 media, there were distinct clusters of cells resembling human islets present throughout the culture plate. FIGS. 8A-8B show images of day 6 cultures in stage 5 while FIGS. 8C-8D show images of day 12 stage 5 cultures. Some of the clusters were manually removed, plated on 1:30 […]-coated plates in stage 5 media. After 2 days of incubation, the clusters were stained for insulin and glucagon. The majority of the cells in the clusters as shown in FIGS. 9A-9B were positive for human insulin. In order to further optimize the dose of the BMP inhibitor, Noggin; cultures were treated at stage 2-4 with 0, 10, 50, or 100 ng/ml of Noggin. FIG. 10 depicts expression of NGN3 at stage 4 for cultures treated with varying doses of Noggin at stages 2-4.

Where [4] appears, read: omission of Noggin at stage 4, Netrin-4 plus Alk5 inhibitor added, end of stage 5.
Where [5] appears, read: Noggin at both stages 3 and 4, compared to untreated samples.

We go through 2 molecules from US11505783B2, “Differentiation of human embryonic stem cells” (Janssen Biotech, Inc., priority 2007, dated 2022).

B1: Netrin-4: netrin protein added at 100 ng/ml (R&D Systems) (protein, UniProt Q9HB63 19-628, looked up)
Netrin-4: GLSGVAGVSSRCEKACNPRMGNLALGRKLWADTTCGQNATELYCFYSENTDLTCRQPKCDKCNAAYPHLAHLPSAMADSSFRFPRTWWQSAEDVHREKIQLDLEAEFYFTHLIVMFKSPRPAAMVLDRSQDFGKTWKPYKYFATNCSATFGLEDDVVKKGAICTSKYSSPFPCTGGEVIFKALSPPYDTENPYSAKVQEQLKITNLRVQLLKRQSCPCQRNDLNEEPQHFTHYAIYDFIVKGSCFCNGHADQCIPVHGFRPVKAPGTFHMVHGKCMCKHNTAGSHCQHCAPLYNDRPWEAADGKTGAPNECRTCKCNGHADTCHFDVNVWEASGNRSGGVCDDCQHNTEGQYCQRCKPGFYRDLRRPFSAPDACKPCSCHPVGSAVLPANSVTFCDPSNGDCPCKPGVAGRRCDRCMVGYWGFGDYGCRPCDCAGSCDPITGDCISSHTDIDWYHEVPDFRPVHNKSEPAWEWEDAQGFSALLHSGKCECKEQTLGNAKAFCGMKYSYVLKIKILSAHDKGTHVEVNVKIKKVLKSTKLKIFRGKRTLYPESWTDRGCTCPILNPGLEYLVAGHEDIRTGKLIVNMKSFVQHWKPSLGRKVMDILKRECK
With B1, the “expression of NGN3, NeuroD, and Pax4” value in test [1] (100 ng/ml Netrin-4 and ALK5 inhibitor II at stage 4 plus 100 ng/ml Noggin at stage 3 and 4) is recorded as “dramatically enhanced”.

B2: Noggin: recombinant human Noggin, BMP inhibitor (R & D Systems) (protein, UniProt Q13253 28-232, looked up)
Noggin: QHYLHIRPAPSDNLPLVDLIEHPDPIFDPKEKDLNETLLRSLLGGHYDPGFMATSPPEDRPGGGGGAAGGAEDLAELDQLLRQRPSGAMPSEIKGLEFSEGLAQGKKQRLSKKLRRKLQMWLWSQTFCPVLYAWNDLGSRFWPRYVKVGSCFSKRSCSVPEGMVCKPSKSVHLTVLRWRCQRRGGQRCGWIPIQYPIISECKCSC
On to B2, for which the “expression of albumin and CDX2” value in test [2] (100 ng/ml at stage 3, compared to untreated samples) is “significantly suppressing”. Moreover, in test [2] (100 ng/ml at stage 3, end of stage 4, 1 μm ALK5 inhibitor II at stages 4 and 5), the “expression of insulin and glucagon” value is given as “marginally enhanced”. Also, in test [2] (500 ng/ml at stage 3), the “expression of PDX-1” value was “did not affect”; the “expression of endocrine markers, along with albumin and CDX2” value is “significantly diminish”. Also, in test [1] (setting [4]), the “expression of NGN3, NKX2.2, and NeuroD” value is “significantly reduce”; the “expression of insulin and glucagon” value is “moderately affecting”. In addition, in test [3] (100 ng/ml Noggin at stage 3+4 plus ALK5 inhibitor II, stages 4-5), the “expression of insulin and glucagons” value was “dramatically enhanced”. In test [3] (setting [5]), the “expression of NGN3” value was “significantly enhanced”; the “expression of albumin and CDX2” value is given as “significantly suppressing”. For the same molecule, the “Noggin concentration resulting in maximal expression of NGN3 at stage 4” value in test [3] (cultures treated at stage 2-4 with 0, 10, 50, or 100 ng/ml) lay in the range of 50 to 100 ng/mL.
